Results on 7 molecules are retold here after patent US20230212266A1 (FRED HUTCHINSON CANCER CENTER, published 2023).

For assay [1], the target named is T1, SARS-CoV-2 receptor binding domain (RBD) (SARS-CoV-2, UniProt P0DTC2 319-591). As to the kind of experiment: BLI: mAb on anti-human Fc probe, dipped in the antigen. A general note: Biolayer interferometry detects binding as a change in optical thickness at a sensor tip.
Assay [2] addresses T1, SARS-CoV-2 receptor binding domain (RBD). Described as above. The source holds these as a separate data set.
Assay [3] has the same target. In words: BLI, mAb on anti-human Fc probe, antigen in solution.
The target is the same in assay [4]. In words: BLI: mAb on anti-human Fc probe, dipped in the antigen. This is another data set of the same source.
Assay [5] shares this target. The assay is described as above. This is another data set of the same source.
Assay [6] shares this target. In words: BLI, mAb on anti-human Fc probe, antigen in solution. This is another data set of the same source.
Assay [7] shares this target. The description is as above. This is another data set of the same source.

B1: CV2-44 (antibody, V domains shown)
VH: QVQLVQSGAEVKKPGASVKVSCKASGYTFISYGISWVRQAPGQGLEWMGWISGYNGNTNYAQKFQGRVTMTTDTSTSTAYMELRSLRSDDTAVYYCARVRIFGVVIIVDTAMVLDYWGQGTLVTVSS
VL: QSVLTQPPSVSAAPGQKVTISCSGSSSNIGNNYVSWYQQLPGTAPKLLIYENNKRPSGIPDRFSGSKSGTSATLGITGLQTGDEAHYYCGTWDSSLSAGVFGGGTKLTVL
B1: the binding result in assay [1] was “no binding”.

B2: CV2-50 (antibody, V domains shown)
VH: QVQLVESGGGVVQPGRSLRLSCAASGFTFSSYGMHWVRQAPGKGLEWVAVISYDGSNQYYADSVKGRFTISRDNSKNTLYLQMNSLRAEDTAVYYCAKDPTIFGVVLQIPRFDYWGQGTLVTVSS
VL: EIVLTQSPATLSLSPGERATLSCRASQSVSSYLAWYQQKPGQAPRLLIYDASNRATGIPARFSGSGSGTDFTLTISSLEPEDFAVYYCQQRSNWPPTFGQGTKLEIK
As for B2, in assay [2], the binding result is “no binding”.

B3: CV2-43 (antibody, V domains shown)
VH: QVQLVQSGAEVKKPGSSVKVSCKASGGTFSSYAISWVRQAPGQGLEWMGGIIPIFGTANYAQKFQGRVTITADESTSTAYMELSSLRSEDTAVYYCARAYSYDSSGYSPDYWGQGTLVTVSS
VL: EIVLTQSPATLSLSPGERATLSCRASQSVSSYLAWYQQKPGQAPRLLIYDASNRATGIPARFSGSGSGTDFTLTISSLEPEDFAVYYCQQRSNWPPKLTFGGGTKVEIK
notes: expressed as IgG
Turning to B3, in assay [3], the binding result is “no binding”.

B4: CV2-47 (antibody, V domains shown)
VH: QVQLVQSGAEVKKPGSSVKVSCKTSGGTFSNYAISWVRQAPGQGLEWMGGIIPIFGTANYAQKFQGRVTFTADESTSTAYMELSSLRSEDTAVFYCVSRIAAAADFDYWGQGTLVTVSS
VL: EIVLTQSPATLSLSPGERATLSCRASQSISSYLAWYQQKPGQAPRLLIYDASNRATGIPARFSGSGSGTDFTLTISSLEPEDFAVYYCQQRSNWPPLLTFGGGTKVEIK
B4: the binding result in assay [4] is recorded as “no binding”.

B5: CV2-45 (antibody, V domains shown)
VH: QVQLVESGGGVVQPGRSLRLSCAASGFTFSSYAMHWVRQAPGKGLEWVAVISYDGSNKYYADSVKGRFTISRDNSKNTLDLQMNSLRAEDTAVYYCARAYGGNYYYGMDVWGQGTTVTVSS
VL: AIQLTQSPSSLSASVGDRVTITCRASQGISSALAWYQQKPGKAPKLLIYDASSLESGVPSRFSGSGSGTDFTLTISSLQPEDFATYYCQQFNNYPLTFGGGTKVEIK
B5: in assay [5], the binding result is recorded as “no binding”.

B6: CV2-42 (antibody, V domains shown)
VH: QVQLVQSGAEVKKPGASVKVSCKASGYTFTSYGISWVRQAPGQGLEWMGWISAYNGNTNYAQKLQGRVTMTTDTSTSTAYMELRSLRSDDTAVYYCARDRRGSGWSWDYYYYGMDVWGQGTTVTVSS
VL: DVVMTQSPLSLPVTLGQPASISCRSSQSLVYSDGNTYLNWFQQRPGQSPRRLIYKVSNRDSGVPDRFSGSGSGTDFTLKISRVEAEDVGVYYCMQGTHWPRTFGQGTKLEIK
notes: expressed as IgG
As to B6, in assay [6], the binding result was “no binding”.

B7: CV2-40 (antibody, V domains shown)
VH: QVQLVESGGGLVKPGGSLRLSCAASGFTFSDYYMSWIRQAPGKGLEWVSYISSRSSYTNYADSVKGRFTISRDNAKNSLYLQMNSLRAEDTAVYYCARGYDSSGYHYSLWGQGTLVTVSS
VL: QSALTQPASVSGSPGQSITISCTGTSSDVGGYNYVSWYQQHPGKAPKLMIYEVSNRPSGVSNRFSGSKSGNTASLTISGLQAEDEADYYCSSYTNSRTLDVVFGGGTKLTVL
notes: expressed as IgG
Regarding B7, the binding result in assay [7] is recorded as “no binding”.
